# Data reported in IntAct's records for PubMed 35512704.
# B1: Mothers against decapentaplegic homolog 4 (Homo sapiens), Q13485 (parent)
# chain: MDNMSITNTPTSNDACLSIVHSLMCHRQGGESETFAKRAIESLVKKLKEKKDELDSLITAITTNGAHPSKCVTIQRTLDGRLQVAGRKGFPHVIYARLWRWPDLHKNELKHVKYCQYAFDLKCDSVCVNPYHYERVVSPGIDLSGLTLQSNAPSSMMVKDEYVHDFEGQPSLSTEGHSIQTIQHPPSNRASTETYSTPALLAPSESNATSTANFPNIPVASTSQPASILGGSHSEGLLQIASGPQPGQQQNGFTGQPATYHHNSTTTWTGSRTAPYTPNLPHHQNGHLQHHPPMPPHPGHYWPVHNELAFQPPISNHPAPEYWCSIAYFEMDVQVGETFKVPSSCPIVTVDGYVDPSGGDRFCLGQLSNVHRTEAIERARLHIGKGVQLECKGEGDVWVRCLSDHAVFVQSYYLDREAGRAPGDAVHKIYPSAYIKVFDLRQCHRQMQQQAATAQAAAAAQAAAVAGNIPGPGSVGGIAPAISLSAAAGIGVDDLRRLCILRMSFVKGWGPDYPRQSIKETPCWIEIHLHRALQLLDEVLHTMPIADPQPLD
# partner: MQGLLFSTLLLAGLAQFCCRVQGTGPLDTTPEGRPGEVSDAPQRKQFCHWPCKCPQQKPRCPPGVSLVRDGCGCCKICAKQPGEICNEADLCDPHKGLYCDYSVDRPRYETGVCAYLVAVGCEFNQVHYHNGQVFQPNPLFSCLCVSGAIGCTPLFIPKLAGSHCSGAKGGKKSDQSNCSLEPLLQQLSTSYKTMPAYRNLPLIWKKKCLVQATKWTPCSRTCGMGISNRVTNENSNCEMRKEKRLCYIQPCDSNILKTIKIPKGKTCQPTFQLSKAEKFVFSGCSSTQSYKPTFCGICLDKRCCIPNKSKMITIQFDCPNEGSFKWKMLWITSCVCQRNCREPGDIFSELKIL
# B2: Mothers against decapentaplegic homolog 4 (Homo sapiens), Q13485 (parent)
# chain: B1 chain
# partner: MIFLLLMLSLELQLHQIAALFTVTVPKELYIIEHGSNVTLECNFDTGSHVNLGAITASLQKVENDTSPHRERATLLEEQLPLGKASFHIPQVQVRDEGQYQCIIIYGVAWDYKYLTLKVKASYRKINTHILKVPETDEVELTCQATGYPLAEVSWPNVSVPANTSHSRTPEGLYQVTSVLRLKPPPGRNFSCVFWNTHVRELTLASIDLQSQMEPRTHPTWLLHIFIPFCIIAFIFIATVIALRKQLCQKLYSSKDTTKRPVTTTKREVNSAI
# B3: Mothers against decapentaplegic homolog 4 (Homo sapiens), Q13485 (parent)
# chain: B1 chain
# partner: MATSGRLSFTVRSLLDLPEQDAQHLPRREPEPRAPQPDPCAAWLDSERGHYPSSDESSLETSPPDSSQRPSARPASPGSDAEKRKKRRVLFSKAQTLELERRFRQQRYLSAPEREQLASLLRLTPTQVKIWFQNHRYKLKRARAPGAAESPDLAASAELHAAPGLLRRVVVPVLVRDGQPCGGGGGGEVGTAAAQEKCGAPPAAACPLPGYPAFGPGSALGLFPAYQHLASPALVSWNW
# B4: Mothers against decapentaplegic homolog 4 (Homo sapiens), Q13485 (parent)
# chain: B1 chain
# partner: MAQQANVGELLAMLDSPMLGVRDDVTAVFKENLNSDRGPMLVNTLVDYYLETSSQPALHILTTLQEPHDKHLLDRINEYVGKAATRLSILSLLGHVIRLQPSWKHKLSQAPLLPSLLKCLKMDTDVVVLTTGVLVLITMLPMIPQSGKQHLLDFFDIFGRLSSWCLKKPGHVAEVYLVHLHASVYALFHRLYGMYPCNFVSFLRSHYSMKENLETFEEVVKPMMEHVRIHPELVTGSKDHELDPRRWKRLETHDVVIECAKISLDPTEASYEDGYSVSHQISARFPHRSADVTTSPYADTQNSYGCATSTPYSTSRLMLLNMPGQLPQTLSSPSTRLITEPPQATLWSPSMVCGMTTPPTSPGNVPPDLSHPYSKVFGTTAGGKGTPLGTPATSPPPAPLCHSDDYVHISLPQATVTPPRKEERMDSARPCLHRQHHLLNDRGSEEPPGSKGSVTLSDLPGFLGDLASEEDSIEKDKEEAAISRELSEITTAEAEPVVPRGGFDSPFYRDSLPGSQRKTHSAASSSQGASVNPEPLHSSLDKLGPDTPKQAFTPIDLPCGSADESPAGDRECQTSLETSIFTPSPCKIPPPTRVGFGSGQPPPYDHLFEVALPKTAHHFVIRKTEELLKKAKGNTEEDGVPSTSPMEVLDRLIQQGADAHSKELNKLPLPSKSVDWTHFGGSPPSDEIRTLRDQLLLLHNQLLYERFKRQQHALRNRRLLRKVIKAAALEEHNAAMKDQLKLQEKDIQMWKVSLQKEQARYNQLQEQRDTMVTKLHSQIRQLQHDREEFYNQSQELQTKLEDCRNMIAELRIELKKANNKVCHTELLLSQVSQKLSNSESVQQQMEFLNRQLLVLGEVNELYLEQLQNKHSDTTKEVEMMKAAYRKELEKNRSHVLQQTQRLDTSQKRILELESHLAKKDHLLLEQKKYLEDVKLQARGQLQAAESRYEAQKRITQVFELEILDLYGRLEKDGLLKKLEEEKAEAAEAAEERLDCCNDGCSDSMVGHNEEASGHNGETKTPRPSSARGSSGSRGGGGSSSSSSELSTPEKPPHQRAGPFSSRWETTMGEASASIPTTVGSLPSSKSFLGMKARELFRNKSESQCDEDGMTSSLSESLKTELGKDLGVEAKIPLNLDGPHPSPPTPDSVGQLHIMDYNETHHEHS
# B5: Mothers against decapentaplegic homolog 4 (Homo sapiens), Q13485 (parent)
# chain: B1 chain
# partner: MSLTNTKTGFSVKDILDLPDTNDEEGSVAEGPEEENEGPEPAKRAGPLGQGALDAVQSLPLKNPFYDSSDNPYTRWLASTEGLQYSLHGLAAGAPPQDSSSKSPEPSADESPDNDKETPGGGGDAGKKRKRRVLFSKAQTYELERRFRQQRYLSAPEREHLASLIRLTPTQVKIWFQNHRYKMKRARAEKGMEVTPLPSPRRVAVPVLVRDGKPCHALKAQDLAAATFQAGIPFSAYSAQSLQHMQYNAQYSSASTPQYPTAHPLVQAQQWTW
# B6: Mothers against decapentaplegic homolog 4 (Homo sapiens), Q13485 (parent)
# chain: B1 chain
# partner: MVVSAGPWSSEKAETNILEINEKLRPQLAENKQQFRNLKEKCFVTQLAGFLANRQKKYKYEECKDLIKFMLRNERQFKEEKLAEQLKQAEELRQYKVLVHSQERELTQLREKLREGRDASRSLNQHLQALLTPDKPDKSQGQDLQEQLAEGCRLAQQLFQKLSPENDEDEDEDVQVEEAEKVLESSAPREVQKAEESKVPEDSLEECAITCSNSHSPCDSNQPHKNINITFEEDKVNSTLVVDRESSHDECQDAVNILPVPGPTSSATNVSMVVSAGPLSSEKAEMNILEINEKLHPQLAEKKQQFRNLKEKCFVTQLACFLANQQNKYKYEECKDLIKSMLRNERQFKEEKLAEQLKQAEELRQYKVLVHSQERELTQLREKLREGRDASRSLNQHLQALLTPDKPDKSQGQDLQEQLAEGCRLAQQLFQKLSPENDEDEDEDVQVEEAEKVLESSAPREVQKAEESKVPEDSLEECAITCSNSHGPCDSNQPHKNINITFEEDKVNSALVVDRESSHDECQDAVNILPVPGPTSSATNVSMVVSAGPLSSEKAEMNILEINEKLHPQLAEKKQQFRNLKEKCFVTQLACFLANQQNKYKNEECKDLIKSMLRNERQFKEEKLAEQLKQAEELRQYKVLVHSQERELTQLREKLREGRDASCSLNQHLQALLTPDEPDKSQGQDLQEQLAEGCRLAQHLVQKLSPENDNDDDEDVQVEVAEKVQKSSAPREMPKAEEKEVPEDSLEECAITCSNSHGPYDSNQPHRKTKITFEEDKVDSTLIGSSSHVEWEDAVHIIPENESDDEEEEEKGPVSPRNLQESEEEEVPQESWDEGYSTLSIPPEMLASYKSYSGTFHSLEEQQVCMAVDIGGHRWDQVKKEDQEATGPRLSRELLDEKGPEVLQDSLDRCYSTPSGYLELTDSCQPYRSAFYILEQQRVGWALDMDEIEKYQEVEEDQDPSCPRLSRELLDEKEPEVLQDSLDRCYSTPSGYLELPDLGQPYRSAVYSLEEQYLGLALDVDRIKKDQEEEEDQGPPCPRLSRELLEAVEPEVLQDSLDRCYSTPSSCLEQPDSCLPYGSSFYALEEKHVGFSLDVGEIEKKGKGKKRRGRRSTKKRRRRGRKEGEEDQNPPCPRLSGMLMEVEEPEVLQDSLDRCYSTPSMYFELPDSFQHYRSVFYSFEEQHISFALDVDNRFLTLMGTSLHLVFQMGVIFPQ
# B7: Mothers against decapentaplegic homolog 4 (Homo sapiens), Q13485 (parent)
# chain: B1 chain
# partner: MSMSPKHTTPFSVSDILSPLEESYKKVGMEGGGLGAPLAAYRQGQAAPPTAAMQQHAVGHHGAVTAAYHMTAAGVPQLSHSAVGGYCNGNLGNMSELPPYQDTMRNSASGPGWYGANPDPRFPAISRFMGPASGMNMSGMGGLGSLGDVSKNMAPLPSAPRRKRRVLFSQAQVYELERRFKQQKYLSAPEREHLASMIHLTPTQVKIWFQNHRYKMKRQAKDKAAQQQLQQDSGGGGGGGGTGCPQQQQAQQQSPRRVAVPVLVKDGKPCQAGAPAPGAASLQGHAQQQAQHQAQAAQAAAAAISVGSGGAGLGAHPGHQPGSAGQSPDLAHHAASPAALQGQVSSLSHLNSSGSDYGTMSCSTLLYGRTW
# B8: Mothers against decapentaplegic homolog 4 (Homo sapiens), Q13485 (parent)
# chain: B1 chain
# partner: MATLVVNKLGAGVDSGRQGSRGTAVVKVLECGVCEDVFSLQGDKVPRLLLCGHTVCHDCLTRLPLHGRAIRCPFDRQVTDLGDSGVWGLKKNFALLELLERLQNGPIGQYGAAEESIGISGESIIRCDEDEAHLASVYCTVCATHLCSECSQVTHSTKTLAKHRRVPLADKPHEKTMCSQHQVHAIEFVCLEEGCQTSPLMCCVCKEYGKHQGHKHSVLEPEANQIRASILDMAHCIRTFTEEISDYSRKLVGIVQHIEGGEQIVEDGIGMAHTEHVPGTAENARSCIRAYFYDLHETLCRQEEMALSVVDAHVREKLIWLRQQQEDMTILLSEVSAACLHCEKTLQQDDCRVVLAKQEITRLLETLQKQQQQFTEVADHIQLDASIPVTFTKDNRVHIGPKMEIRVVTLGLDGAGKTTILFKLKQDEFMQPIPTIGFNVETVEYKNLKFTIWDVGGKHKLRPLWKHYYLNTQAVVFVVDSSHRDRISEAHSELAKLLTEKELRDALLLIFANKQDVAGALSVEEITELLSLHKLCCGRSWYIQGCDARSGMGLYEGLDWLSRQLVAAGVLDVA
# Variants of: B1
# Conditions: with ccn6_human CCN6, O95389
row,effect of a mutation on the interaction,Variant
1,with no effect,R361H

# Variants of: B1
# Conditions: with ccn6_human CCN6, O95389
# Remark: another data set of the same source
row,effect of a mutation on the interaction,Variant
1,with no effect,D351H

# Variants of: B2
# Conditions: with pd1l2_human PDCD1LG2, Q9BQ51
row,effect of a mutation on the interaction,Variant
1,with no effect,G386D

# Variants of: B2
# Conditions: with pd1l2_human PDCD1LG2, Q9BQ51
# Remark: another data set of the same source
row,effect of a mutation on the interaction,Variant
1,with no effect,D351H

# Variants of: B3
# Conditions: with nkx28_human NKX2-8, O15522
row,effect of a mutation on the interaction,Variant
1,with no effect,R361C

# Variants of: B3
# Conditions: with nkx28_human NKX2-8, O15522
# Remark: another data set of the same source
row,effect of a mutation on the interaction,Variant
1,with no effect,R361H

# Variants of: B3
# Conditions: with nkx28_human NKX2-8, O15522
# Remark: another data set of the same source
row,effect of a mutation on the interaction,Variant
1,with no effect,G386D

# Variants of: B3
# Conditions: with nkx28_human NKX2-8, O15522
# Remark: another data set of the same source
row,effect of a mutation on the interaction,Variant
1,with no effect,D351H

# Variants of: B4
# Conditions: with tsc1_human TSC1, Q92574
row,effect of a mutation on the interaction,Variant
1,with no effect,G386D

# Variants of: B4
# Conditions: with tsc1_human TSC1, Q92574
# Remark: another data set of the same source
row,effect of a mutation on the interaction,Variant
1,with no effect,D351H

# Variants of: B4
# Conditions: with tsc1_human TSC1, Q92574
# Remark: another data set of the same source
row,effect of a mutation on the interaction,Variant
1,with no effect,R361C

# Variants of: B4
# Conditions: with tsc1_human TSC1, Q92574
# Remark: another data set of the same source
row,effect of a mutation on the interaction,Variant
1,with no effect,R361H

# Variants of: B5
# Conditions: with nkx22_human NKX2-2, O95096
row,effect of a mutation on the interaction,Variant
1,with no effect,D351H

# Variants of: B5
# Conditions: with nkx22_human NKX2-2, O95096
# Remark: another data set of the same source
row,effect of a mutation on the interaction,Variant
1,with no effect,R361H

# Variants of: B5
# Conditions: with nkx22_human NKX2-2, O95096
# Remark: another data set of the same source
row,effect of a mutation on the interaction,Variant
1,with no effect,R361C

# Variants of: B6
# Conditions: with nbpf1_human NBPF1, Q3BBV0
row,effect of a mutation on the interaction,Variant
1,with no effect,G386D

# Variants of: B7
# Conditions: with nkx21_human NKX2-1, P43699
row,effect of a mutation on the interaction,Variant
1,with no effect,D351H

# Variants of: B7
# Conditions: with nkx21_human NKX2-1, P43699
# Remark: another data set of the same source
row,effect of a mutation on the interaction,Variant
1,with no effect,R361C

# Variants of: B7
# Conditions: with nkx21_human NKX2-1, P43699
# Remark: another data set of the same source
row,effect of a mutation on the interaction,Variant
1,with no effect,R361H

# Variants of: B7
# Conditions: with nkx21_human NKX2-1, P43699
# Remark: another data set of the same source
row,effect of a mutation on the interaction,Variant
1,with no effect,G386D

# Variants of: B8
# Conditions: with tri23_human TRIM23, P36406
row,effect of a mutation on the interaction,Variant
1,with no effect,G386D

# Variants of: B8
# Conditions: with tri23_human TRIM23, P36406
# Remark: another data set of the same source
row,effect of a mutation on the interaction,Variant
1,with no effect,D351H

# Variants of: B8
# Conditions: with tri23_human TRIM23, P36406
# Remark: another data set of the same source
row,effect of a mutation on the interaction,Variant
1,with no effect,R361H

# Variants of: B8
# Conditions: with tri23_human TRIM23, P36406
# Remark: another data set of the same source
row,effect of a mutation on the interaction,Variant
1,with no effect,R361C
